{
  "source": "the supplement of paper PMC10567573",
  "parents": {"B1": {"name": "DUSP5 (parent)", "chain": "YSEYPECCVDVKPISQEKIESERA"}, "B2": {"name": "IQUB (parent)", "chain": "EADYEDDSKIAFLMQLQDIQYLTE"}},
  "data": [
    {"variants_of": "B1", "assay": "protein stability index of a GFP-peptide fusion (GPS, HEK-293T) (PSI 1-6); higher = more stable", "details": "c terminus: a fixed tail appended", "values": [
      {"variant": "YSEYDECCVDVKPISQEKIESERA", "note": "[P5D]", "protein stability index": 5.42},
      {"variant": "YSEYVECCVDVKPISQEKIESERA", "note": "[P5V]", "protein stability index": 4.45},
      {"variant": "YSEYKECCVDVKPISQEKIESERA", "note": "[P5K]", "protein stability index": 5.16},
      {"variant": "YSEYIECCVDVKPISQEKIESERA", "note": "[P5I]", "protein stability index": 3.96},
      {"variant": "YSEYSECCVDVKPISQEKIESERA", "note": "[P5S]", "protein stability index": 4.73},
      {"variant": "YSEYNECCVDVKPISQEKIESERA", "note": "[P5N]", "protein stability index": 5.38},
      {"variant": "YSEYLECCVDVKPISQEKIESERA", "note": "[P5L]", "protein stability index": 4.28},
      {"variant": "YSEYAECCVDVKPISQEKIESERA", "note": "[P5A]", "protein stability index": 4.47},
      {"variant": "YSEYCECCVDVKPISQEKIESERA", "note": "[P5C]", "protein stability index": 4.34},
      {"variant": "YSEYWECCVDVKPISQEKIESERA", "note": "[P5W]", "protein stability index": 1.21},
      {"variant": "YSEYRECCVDVKPISQEKIESERA", "note": "[P5R]", "protein stability index": 3.48},
      {"variant": "YSEYHECCVDVKPISQEKIESERA", "note": "[P5H]", "protein stability index": 3.39},
      {"variant": "YSEYFECCVDVKPISQEKIESERA", "note": "[P5F]", "protein stability index": 3.18},
      {"variant": "YSEYYECCVDVKPISQEKIESERA", "note": "[P5Y]", "protein stability index": 3.9},
      {"variant": "YSEYMECCVDVKPISQEKIESERA", "note": "[P5M]", "protein stability index": 3.98},
      {"variant": "YSEYTECCVDVKPISQEKIESERA", "note": "[P5T]", "protein stability index": 4.85},
      {"variant": "FSEYPECCVDVKPISQEKIESERA", "note": "[Y1F]", "protein stability index": 4.12},
      {"variant": "ISEYPECCVDVKPISQEKIESERA", "note": "[Y1I]", "protein stability index": 4.87},
      {"variant": "HSEYPECCVDVKPISQEKIESERA", "note": "[Y1H]", "protein stability index": 5.21},
      {"variant": "LSEYPECCVDVKPISQEKIESERA", "note": "[Y1L]", "protein stability index": 5.5},
      {"variant": "DSEYPECCVDVKPISQEKIESERA", "note": "[Y1D]", "protein stability index": 5.29},
      {"variant": "RSEYPECCVDVKPISQEKIESERA", "note": "[Y1R]", "protein stability index": 5.62},
      {"variant": "WSEYPECCVDVKPISQEKIESERA", "note": "[Y1W]", "protein stability index": 5.1},
      {"variant": "PSEYPECCVDVKPISQEKIESERA", "note": "[Y1P]", "protein stability index": 4.94},
      {"variant": "SSEYPECCVDVKPISQEKIESERA", "note": "[Y1S]", "protein stability index": 5.75},
      {"variant": "KSEYPECCVDVKPISQEKIESERA", "note": "[Y1K]", "protein stability index": 5.36},
      {"variant": "VSEYPECCVDVKPISQEKIESERA", "note": "[Y1V]", "protein stability index": 5.31},
      {"variant": "MSEYPECCVDVKPISQEKIESERA", "note": "[Y1M]", "protein stability index": 5},
      {"variant": "GSEYPECCVDVKPISQEKIESERA", "note": "[Y1G]", "protein stability index": 5.21},
      {"variant": "ASEYPECCVDVKPISQEKIESERA", "note": "[Y1A]", "protein stability index": 5.74},
      {"variant": "QSEYPECCVDVKPISQEKIESERA", "note": "[Y1Q]", "protein stability index": 5.33},
      {"variant": "TSEYPECCVDVKPISQEKIESERA", "note": "[Y1T]", "protein stability index": 5.23},
      {"variant": "ESEYPECCVDVKPISQEKIESERA", "note": "[Y1E]", "protein stability index": 5.86},
      {"variant": "CSEYPECCVDVKPISQEKIESERA", "note": "[Y1C]", "protein stability index": 5.2},
      {"variant": "NSEYPECCVDVKPISQEKIESERA", "note": "[Y1N]", "protein stability index": 5.6}
    ]},
    {"variants_of": "B2", "assay": "protein stability index of a GFP-peptide fusion (GPS, HEK-293T) (PSI 1-6); higher = more stable", "details": "c terminus: a fixed tail appended", "values": [
      {"variant": "EADYEDDSKIAFLMQLQDIQTLTE", "note": "[Y21T]", "protein stability index": 4.06},
      {"variant": "EIDYEDDSKIAFLMQLQDIQYLTE", "note": "[A2I]", "protein stability index": 2.99},
      {"variant": "EEDYEDDSKIAFLMQLQDIQYLTE", "note": "[A2E]", "protein stability index": 3.63},
      {"variant": "EADYPDDSKIAFLMQLQDIQYLTE", "note": "[E5P]", "protein stability index": 2.79},
      {"variant": "EADYLDDSKIAFLMQLQDIQYLTE", "note": "[E5L]", "protein stability index": 2.43},
      {"variant": "EADYEDHSKIAFLMQLQDIQYLTE", "note": "[D7H]", "protein stability index": 2.98},
      {"variant": "EADYEDCSKIAFLMQLQDIQYLTE", "note": "[D7C]", "protein stability index": 1.88},
      {"variant": "EADYEDNSKIAFLMQLQDIQYLTE", "note": "[D7N]", "protein stability index": 2.19},
      {"variant": "EADYEDDSKAAFLMQLQDIQYLTE", "note": "[I10A]", "protein stability index": 4},
      {"variant": "EADYEDDSKNAFLMQLQDIQYLTE", "note": "[I10N]", "protein stability index": 4.17},
      {"variant": "EAYYEDDSKIAFLMQLQDIQYLTE", "note": "[D3Y]", "protein stability index": 1.83},
      {"variant": "EAVYEDDSKIAFLMQLQDIQYLTE", "note": "[D3V]", "protein stability index": 2.51},
      {"variant": "EARYEDDSKIAFLMQLQDIQYLTE", "note": "[D3R]", "protein stability index": 2.34},
      {"variant": "EAWYEDDSKIAFLMQLQDIQYLTE", "note": "[D3W]", "protein stability index": 2.93},
      {"variant": "EADYEDDSKIAFLMQLQDIQYLTN", "note": "[E24N]", "protein stability index": 2.61},
      {"variant": "EADYEDDSKIAFLMQLQDIQYLTQ", "note": "[E24Q]", "protein stability index": 2.72},
      {"variant": "EADYEDDSKIAFLMQLTDIQYLTE", "note": "[Q17T]", "protein stability index": 2.96},
      {"variant": "EADYEDDSKIAFLMQLWDIQYLTE", "note": "[Q17W]", "protein stability index": 2.02},
      {"variant": "EADYEDDSKIAFLMQLKDIQYLTE", "note": "[Q17K]", "protein stability index": 2.87},
      {"variant": "EADYEDDKKIAFLMQLQDIQYLTE", "note": "[S8K]", "protein stability index": 3.34},
      {"variant": "EADYEDDAKIAFLMQLQDIQYLTE", "note": "[S8A]", "protein stability index": 3.23},
      {"variant": "EADYEDDHKIAFLMQLQDIQYLTE", "note": "[S8H]", "protein stability index": 3.44},
      {"variant": "EADYEDDRKIAFLMQLQDIQYLTE", "note": "[S8R]", "protein stability index": 2.88},
      {"variant": "EADYEDDCKIAFLMQLQDIQYLTE", "note": "[S8C]", "protein stability index": 2.29},
      {"variant": "EADYEDDYKIAFLMQLQDIQYLTE", "note": "[S8Y]", "protein stability index": 2.34},
      {"variant": "EADYEDDSKIAFLMQLQDIQYLIE", "note": "[T23I]", "protein stability index": 1.54},
      {"variant": "EADYEDDSKIAFLMQLQDIQYLKE", "note": "[T23K]", "protein stability index": 3.2},
      {"variant": "EADYEDDSKIAFLMQLQDIQYLDE", "note": "[T23D]", "protein stability index": 4.09},
      {"variant": "EADYEDDSKIAFLMQLQDIQYLFE", "note": "[T23F]", "protein stability index": 1.98},
      {"variant": "EADYENDSKIAFLMQLQDIQYLTE", "note": "[D6N]", "protein stability index": 2.9},
      {"variant": "EADYEHDSKIAFLMQLQDIQYLTE", "note": "[D6H]", "protein stability index": 2.4},
      {"variant": "EADYEDDSKIVFLMQLQDIQYLTE", "note": "[A11V]", "protein stability index": 2.24},
      {"variant": "EADYEDDSKICFLMQLQDIQYLTE", "note": "[A11C]", "protein stability index": 2.54},
      {"variant": "EADYEDDSKIKFLMQLQDIQYLTE", "note": "[A11K]", "protein stability index": 3.4},
      {"variant": "EADYEDDSKIQFLMQLQDIQYLTE", "note": "[A11Q]", "protein stability index": 3.49},
      {"variant": "EADYEDDSKIIFLMQLQDIQYLTE", "note": "[A11I]", "protein stability index": 1.99},
      {"variant": "EADREDDSKIAFLMQLQDIQYLTE", "note": "[Y4R]", "protein stability index": 3.42},
      {"variant": "EADYEDDSKIAFRMQLQDIQYLTE", "note": "[L13R]", "protein stability index": 3.88},
      {"variant": "EADYEDDSKIAFVMQLQDIQYLTE", "note": "[L13V]", "protein stability index": 3.12},
      {"variant": "EADYEDDSKIAFDMQLQDIQYLTE", "note": "[L13D]", "protein stability index": 4.68},
      {"variant": "EADYEDDSKIAFLMQLQDMQYLTE", "note": "[I19M]", "protein stability index": 3.68},
      {"variant": "EADYEDDSKIAFLMTLQDIQYLTE", "note": "[Q15T]", "protein stability index": 2.19},
      {"variant": "EADYEDDSKIAFLMLLQDIQYLTE", "note": "[Q15L]", "protein stability index": 2.04},
      {"variant": "EADYEDDSKIAFLMQLQDIWYLTE", "note": "[Q20W]", "protein stability index": 2.35},
      {"variant": "EADYEDDSKIAFLMQLQDIGYLTE", "note": "[Q20G]", "protein stability index": 2.97},
      {"variant": "EADYEDDSKIAFLMQLQDIFYLTE", "note": "[Q20F]", "protein stability index": 1.54},
      {"variant": "EADYEDDSKIAFLMQSQDIQYLTE", "note": "[L16S]", "protein stability index": 4.26},
      {"variant": "EADYEDDSKIAFLMQHQDIQYLTE", "note": "[L16H]", "protein stability index": 4.43},
      {"variant": "EADYEDDSKIAFLMQQQDIQYLTE", "note": "[L16Q]", "protein stability index": 4.19},
      {"variant": "EADYEDDSKIAFLMQLQSIQYLTE", "note": "[D18S]", "protein stability index": 2.24},
      {"variant": "EADYEDDSKIAFLMQLQCIQYLTE", "note": "[D18C]", "protein stability index": 1.84},
      {"variant": "EADYEDDSKIAFLMQLQEIQYLTE", "note": "[D18E]", "protein stability index": 2.86},
      {"variant": "EADYEDDSKIAFLMQLQIIQYLTE", "note": "[D18I]", "protein stability index": 1.39},
      {"variant": "EADYEDDSWIAFLMQLQDIQYLTE", "note": "[K9W]", "protein stability index": 2.61},
      {"variant": "EADYEDDSEIAFLMQLQDIQYLTE", "note": "[K9E]", "protein stability index": 3.39},
      {"variant": "LADYEDDSKIAFLMQLQDIQYLTE", "note": "[E1L]", "protein stability index": 2.75},
      {"variant": "QADYEDDSKIAFLMQLQDIQYLTE", "note": "[E1Q]", "protein stability index": 2.76},
      {"variant": "EADYEDDSKIADLMQLQDIQYLTE", "note": "[F12D]", "protein stability index": 5.07},
      {"variant": "EADYEDDSKIARLMQLQDIQYLTE", "note": "[F12R]", "protein stability index": 4.38}
    ]}
  ]
}
